Measured values: patent US20240262922A1 (Merck KGaA, published 2024)
Positions count from the first letter of the chain named.

T1: AVI-GST-His6-hOX40L (human, UniProt P23510 51-183)
T1 sequence: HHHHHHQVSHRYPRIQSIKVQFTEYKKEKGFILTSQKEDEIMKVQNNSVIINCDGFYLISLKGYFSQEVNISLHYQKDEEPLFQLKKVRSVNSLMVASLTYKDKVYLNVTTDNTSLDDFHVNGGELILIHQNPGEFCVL

T2: recombinant human OX40L protein (R&D Systems, cat. #1054-OX) (human, UniProt P23510 51-183)
T2 construct: Bought soluble recombinant protein; also called rhOX40L; recombinant soluble OX40L
T2 sequence: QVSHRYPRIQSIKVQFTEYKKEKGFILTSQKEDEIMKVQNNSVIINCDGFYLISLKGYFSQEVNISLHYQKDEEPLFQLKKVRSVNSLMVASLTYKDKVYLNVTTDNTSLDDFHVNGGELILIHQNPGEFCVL

B1: 98C01 (FcFab) (antibody)
heavy: EPKSSDKTHTCPPCPAPPVAGPSVFLFPPKPKDTLMISRTPEVTCVVVDVSHEDPEVKFNWYVDGVEVHNAKTKPREEQYNSTYRVVSVLTVLHQDWLNGKEYKCAVSNKALPSSIEKTISKAKGQPREPQVYTLPPSREEMTKNQVSLTCLVKGFYPSDIAVEWESNGQPENNYKTTPPVLDSDGSFFLYSKLTVDKSRWQQGNVFSCSVMHEALHNHYTQKSLSLSPGAGGGGSGGGGSGGGGSQVQLQESGPGLVKPSETLSLTCTVSGGSISSSSYYWGWIRQPPGKGLEWIGGIGSVDYSGNTYYKPSLKSRVTISVDTSKNQFSLKLSSVTAADTAVYHCARHRGIYFFDYWGQGTLVTVSSASTKGPSVFPLAPSSKSTSGGTAALGCLVKDYFPEPVTVSWNSGALTSGVHTFPAVLQSSGLYSLSSVVTVPSSSLGTQTYICNVNHKPSNTKVDKRVEPKSC
light: SYELTQPPSVSVALGQTARITCGGNNIENKNVHWYQQKPGQAPVLVIYRDSNRPSGIPERFSGSNSGNTATLSINRAQAGDEADYYCQVWDSNTVVFGGGTKLTVLGQPKAAPSVTLFPPSSEELQANKATLVCLISDFYPGAVTVAWKADSSPVKAGVETTTPSKQSNNKYAASSYLSLTPEQWKSHKSYSCQVTHEGSTVEKTVAPTECS
B2: 30F02 (FcFab) (antibody)
chain 1: EPKSSDKTHTCPPCPAPPVAGPSVFLFPPKPKDTLMISRTPEVTCVVVDVSHEDPEVKFNWYVDGVEVHNAKTKPREEQYNSTYRVVSVLTVLHQDWLNGKEYKCAVSNKALPSSIEKTISKAKGQPREPQVYTLPPSREEMTKNQVSLTCLVKGFYPSDIAVEWESNGQPENNYKTTPPVLDSDGSFFLYSKLTVDKSRWQQGNVFSCSVMHEALHNHYTQKSLSLSPGAGGGGSGGGGSGGGGSQLQLQESGPGLVKPSETLSLTCTVSGASISSSNHYWGWGWIRQPPGKGLEWIGSIYYSGNTYYNPSLKSRVTISVDTSKNQFSLKLSSVTAADTAVYYCARHRGSYFFDHWGQGTLVTVSSASTKGPSVFPLAPSSKSTSGGTAALGCLVKDYFPEPVTVSWNSGALTSGVHTFPAVLQSSGLYSLSSVVTVPSSSLGTQTYICNVNHKPSNTKVDKRVEPKSC
chain 2: B1 light with E3V, P8L, E28G, N29D, Y48S, S73T, N75S, A83S, N93S, L103V
B3: 98E10 (FcFab) (antibody)
heavy: EPKSSDKTHTCPPCPAPPVAGPSVFLFPPKPKDTLMISRTPEVTCVVVDVSHEDPEVKFNWYVDGVEVHNAKTKPREEQYNSTYRVVSVLTVLHQDWLNGKEYKCAVSNKALPSSIEKTISKAKGQPREPQVYTLPPSREEMTKNQVSLTCLVKGFYPSDIAVEWESNGQPENNYKTTPPVLDSDGSFFLYSKLTVDKSRWQQGNVFSCSVMHEALHNHYTQKSLSLSPGAGGGGSGGGGSGGGGSQLQLQESGPGLVKPSETLSLTCTVAGASVSSSSYYWGWIRQSPGKGLEWIGTINYGGSTYHNPSLKRRVTVSVDTSKNQFSLKLTSVTAADTAVYYCARHRGIYHFDYWGQGTLVTVSSASTKGPSVFPLAPSSKSTSGGTAALGCLVKDYFPEPVTVSWNSGALTSGVHTFPAVLQSSGLYSLSSVVTVPSSSLGTQTYICNVNHKPSNTKVDKRVEPKSC
light: B1 light with P8L, K38M, S73T, L103V
B4: 68F03 (FcFab) (antibody)
chain 1: EPKSSDKTHTCPPCPAPPVAGPSVFLFPPKPKDTLMISRTPEVTCVVVDVSHEDPEVKFNWYVDGVEVHNAKTKPREEQYNSTYRVVSVLTVLHQDWLNGKEYKCAVSNKALPSSIEKTISKAKGQPREPQVYTLPPSREEMTKNQVSLTCLVKGFYPSDIAVEWESNGQPENNYKTTPPVLDSDGSFFLYSKLTVDKSRWQQGNVFSCSVMHEALHNHYTQKSLSLSPGAGGGGSGGGGSGGGGSQLQLQESGPGLVKPSETLSLTCTVSGGSIDTSSQYWAWIRQPPGKGLEWIGGIYFSGSTYQNPSLKSRVTTSVDTSKNQFSLRLSSMTAADTAVYYCARHRGIYFFDYWGQGTLVTVSSASTKGPSVFPLAPSSKSTSGGTAALGCLVKDYFPEPVTVSWNSGALTSGVHTFPAVLQSSGLYSLSSVVTVPSSSLGTQTYICNVNHKPSNTKVDKRVEPKSC
chain 2: B1 light with Y2F, P8L, N25I, W34Y, S51T, S73T, N75S, V96I, L103V
B5: 95B06 (FcFab) (antibody)
chain 1: EPKSSDKTHTCPPCPAPPVAGPSVFLFPPKPKDTLMISRTPEVTCVVVDVSHEDPEVKFNWYVDGVEVHNAKTKPREEQYNSTYRVVSVLTVLHQDWLNGKEYKCAVSNKALPSSIEKTISKAKGQPREPQVYTLPPSREEMTKNQVSLTCLVKGFYPSDIAVEWESNGQPENNYKTTPPVLDSDGSFFLYSKLTVDKSRWQQGNVFSCSVMHEALHNHYTQKSLSLSPGAGGGGSGGGGSGGGGSEVQLLESGGGLVQPGGSLRLSCAASGFTFSSYAMTWVRQAPGKGLEWVSDISGSGGSTKYADSVKGRFTISRDNPKNTLYLQMNSLRAEDTAVYYCAKDLGFYSTWDTDYWGQGTLVTVSSASTKGPSVFPLAPSSKSTSGGTAALGCLVKDYFPEPVTVSWNSGALTSGVHTFPAVLQSSGLYSLSSVVTVPSSSLGTQTYICNVNHKPSNTKVDKRVEPKSC
chain 2: DMQMTQSPSSLSASVGDRVTITCRASQGIRNDLDWYQQKPGKVPKRLIHAASSLQSGVPSRFSGSGSGTEFTLTISSLQPEDFVTYYCLQHNTYPWTFGQGTKLEIKRTVAAPSVFIFPPSDEQLKSGTASVVCLLNNFYPREAKVQWKVDNALQSGNSQESVTEQDSKDSTYSLSSTLTLSKADYEKHKVYACEVTHQGLSSPVTKSFNRGEC
B6: 88B06 (FcFab) (antibody)
chain 1: EPKSSDKTHTCPPCPAPPVAGPSVFLFPPKPKDTLMISRTPEVTCVVVDVSHEDPEVKFNWYVDGVEVHNAKTKPREEQYNSTYRVVSVLTVLHQDWLNGKEYKCAVSNKALPSSIEKTISKAKGQPREPQVYTLPPSREEMTKNQVSLTCLVKGFYPSDIAVEWESNGQPENNYKTTPPVLDSDGSFFLYSKLTVDKSRWQQGNVFSCSVMHEALHNHYTQKSLSLSPGAGGGGSGGGGSGGGGSEVQLLESGGGLVQPGGSLRLSCAASGFTFSNYAMSWVRQAPGKGLEWVSVISGSGDSTYYAESVKGRFTISRDNSKNTLYLQMTSLRAEDTAEYYCAKDRTPVYGLDVWGQGTTVTVSSASTKGPSVFPLAPSSKSTSGGTAALGCLVKDYFPEPVTVSWNSGALTSGVHTFPAVLQSSGLYSLSSVVTVPSSSLGTQTYICNVNHKPSNTKVDKRVEPKSC
chain 2: SYELTQPLSVSVALGQTARISCGGNNIGRKNVHWYQQKPGQAPVLVIYGDSNRPSGIPERFSGSNSGNTATLTIGRAQAGDEADYYCQVWDSSTVFGGGTKLTVLGQPKAAPSVTLFPPSSEELQANKATLVCLISDFYPGAVTVAWKADSSPVKAGVETTTPSKQSNNKYAASSYLSLTPEQWKSHKSYSCQVTHEGSTVEKTVAPTECS
B7: 89B09 (FcFab) (antibody)
heavy: EPKSSDKTHTCPPCPAPPVAGPSVFLFPPKPKDTLMISRTPEVTCVVVDVSHEDPEVKFNWYVDGVEVHNAKTKPREEQYNSTYRVVSVLTVLHQDWLNGKEYKCAVSNKALPSSIEKTISKAKGQPREPQVYTLPPSREEMTKNQVSLTCLVKGFYPSDIAVEWESNGQPENNYKTTPPVLDSDGSFFLYSKLTVDKSRWQQGNVFSCSVMHEALHNHYTQKSLSLSPGAGGGGSGGGGSGGGGSEVQLVESGPGLVKPSETLSLTCTVSGVSIRSNGYYWGWIRQSPGKGLEWIGNMDYSGTYQNPSLTSRVTISGDASKNQFSLKLRSVTAADTAVYFCARERSNNWYPIDYWGQGTLVTVSSASTKGPSVFPLAPSSKSTSGGTAALGCLVKDYFPEPVTVSWNSGALTSGVHTFPAVLQSSGLYSLSSVVTVPSSSLGTQTYICNVNHKPSNTKVDKRVEPKSC
light: SSELTQDPAVSVALGQTVRITCQGDSVRRFFAHWYQQKPGQAPILVISGKDTRPSGIPDRFSGSISGNTASLTITGAQAEDEADYYCNSRDSSGYLVLFGGGTKLTVLGQPKAAPSVTLFPPSSEELQANKATLVCLISDFYPGAVTVAWKADSSPVKAGVETTTPSKQSNNKYAASSYLSLTPEQWKSHKSYSCQVTHEGSTVEKTVAPTECS

Assays:
AVI-GST-His6-hOX40L = biological target: T1, AVI-GST-His6-hOX40L; test: cell-based or functional assay
[1] = biological target: T2, recombinant human OX40L protein (R&D …); test: SPR steady state, Biacore T200; OX40L immobilised on CM5, FcFab in solution
Experimental: Recombinant OX40L proteins (human OX40L protein, R&D systems, cat. #1054-OX; cynomolgus monkey OX40L, Novoprotein cat. #CP72) were immobilized onto Biacore CM5 sensor chips and anti-OX40L antibodies were bound to this surface at a range of concentrations. The response at steady state was measured with a Biacore T200 instrument (GE Healthcare) and plotted against the concentration of antibody and fit to a 1:1 binding model. The steady state KD was determined as the antibody concentration at a response equal to half the maximal response (Rₘₐₓ).
As with the IgG clones, binding affinity to human OX40L was determined for all twelve FcFabs using steady state affinity assay as described in section 1.1.7 of Example 1. […]

[2] = biological target: T2, recombinant human OX40L protein (R&D …); test: cell-based or functional assay

| Binder | OX40L neutralization/OX40-HEK Reporter IC50 (AVI-GST-His6-hOX40L) [nM] | Kd [1] [nM] | Primary T cell activation assay IC50 [2] [nM] |
| --- | --- | --- | --- |
| B1 | 5.4 | 27.8 | – |
| B2 | 52.8 | 56 | 2.9 |
| B3 | 5.7 | 33 | 5.3 |
| B4 | 5.5 | 33.1 | 15.6 |
| B5 | 30.8 | 64.1 | 38 |
| B6 | 102 | 35.5 | > 161 |
| B7 | 4.7 | 44.8 | 6.1 |
